Assay results: article PMC3280236

Target: Stat1, unphosphorylated, endogenous in 293 T cells (human (endogenous in 293 T)) (UniProt P42224)
Chain of UniProt P42224 (P42224 whole entry): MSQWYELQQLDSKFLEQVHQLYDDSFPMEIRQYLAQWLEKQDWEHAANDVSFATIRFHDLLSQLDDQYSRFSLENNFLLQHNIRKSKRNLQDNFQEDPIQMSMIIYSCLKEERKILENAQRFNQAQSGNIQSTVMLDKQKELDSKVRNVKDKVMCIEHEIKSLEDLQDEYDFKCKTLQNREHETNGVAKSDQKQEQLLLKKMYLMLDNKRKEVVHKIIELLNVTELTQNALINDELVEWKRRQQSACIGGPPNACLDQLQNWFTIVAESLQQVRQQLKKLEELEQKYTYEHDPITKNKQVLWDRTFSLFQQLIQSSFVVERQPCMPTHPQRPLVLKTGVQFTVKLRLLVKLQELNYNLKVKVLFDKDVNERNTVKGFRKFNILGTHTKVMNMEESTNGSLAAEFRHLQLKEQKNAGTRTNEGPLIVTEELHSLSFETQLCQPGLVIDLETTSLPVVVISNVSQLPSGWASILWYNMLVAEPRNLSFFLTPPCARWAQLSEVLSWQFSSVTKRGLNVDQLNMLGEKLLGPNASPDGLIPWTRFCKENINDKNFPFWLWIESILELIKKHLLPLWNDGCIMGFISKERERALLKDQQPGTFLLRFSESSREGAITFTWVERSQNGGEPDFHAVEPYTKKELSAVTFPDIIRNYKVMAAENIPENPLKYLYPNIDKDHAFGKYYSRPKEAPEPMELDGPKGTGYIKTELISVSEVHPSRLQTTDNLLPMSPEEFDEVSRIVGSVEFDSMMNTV

| Substance | percent of WT HPIV1-infected Vero cells positive for nuclear Stat1 after IFN-β (1,000 IU/mL, 60 min), confocal microscopy (untagged C proteins made by the virus; Stat1 of Vero cells) | percent of F170S HPIV1-infected Vero cells positive for nuclear Stat1 after IFN-β (1,000 IU/mL, 60 min), confocal microscopy (untagged C proteins made by the virus; Stat1 of Vero cells) |
| --- | --- | --- |
| myc-tagged HPIV1 C′ protein, wild type (C′^WT-myc) (natural protein) | 2% |  |
| myc-tagged HPIV1 C′ protein with the F170S substitution (C′^F170S-myc) (natural protein) |  | 82% |
